Among the data in article PMC9297866 are Km and kcat values, retold here.

Substrate in data set [1]: C=C(C)CCO[P@@](=O)(O)OP(=O)(O)O
The data set is described as follows: purified protein. The following applies: regular coupling; two-substrate reaction with DMAPP.

Substrate in data set [2]: CC(C)=CCOP(=O)(O)OP(=O)(O)O
Put plainly: purified protein. The following applies: regular coupling; two-substrate reaction with IPP.

B1: neryl diphosphate synthase from Solanum lycopersicum (SlNPPS) (Solanum lycopersicum; N88H) (protein)
chain: SLNLQTEKLCYEDNDNDLDEELMPKHIALIMDGHRRWAKDKGLEVYEGHKHIIPKLKEICDISSKLGIQIITAFAFSTENWKRSKEEVDFLLQMFEEIYDEFSRSGVRVSIIGCKSDLPMTLQKCIALTEETTKGNKGLHLVIALNYGGYYDILQATKSIVNKAMNGLLDVEDINKNLFDQELESKCPNPDLLIRTGGEQRVSNFLLWQLAYTEFYFTNTLFPDFGEEDLKEAIMNFQQRHRRFGGHTY
By Km is commonly meant the substrate concentration at which the rate is half of its maximum. Turning to B1, the Km in the data set “purified protein [1]” worked out at 457 ± 91 µM; in the data set “purified protein [2]”, 391 ± 96 µM. For the same protein, the kcat in “purified protein [1]” and in the data set “purified protein [2]” was 87±15×10^-3 s^-1 each time.
